For experiment [1], the target named is Recombinant, membrane-anchored tissue factor (TF residues 3–244) fused to E. coli maltose-binding protein (UniProt P13726). Briefly: cryo-EM structure.
A further experiment has as its target T1, Factor VIIa (UniProt P08709 61-212; P08709 213-466, gamma-carboxyglutamate (γ35 printed; GLA domain)).
T1 sequence (looked up) 1: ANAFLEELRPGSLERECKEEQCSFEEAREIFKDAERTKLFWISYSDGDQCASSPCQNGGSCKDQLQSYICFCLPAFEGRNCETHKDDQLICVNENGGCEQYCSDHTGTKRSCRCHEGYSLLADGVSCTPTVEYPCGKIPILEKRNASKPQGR
T1 sequence (looked up) 2: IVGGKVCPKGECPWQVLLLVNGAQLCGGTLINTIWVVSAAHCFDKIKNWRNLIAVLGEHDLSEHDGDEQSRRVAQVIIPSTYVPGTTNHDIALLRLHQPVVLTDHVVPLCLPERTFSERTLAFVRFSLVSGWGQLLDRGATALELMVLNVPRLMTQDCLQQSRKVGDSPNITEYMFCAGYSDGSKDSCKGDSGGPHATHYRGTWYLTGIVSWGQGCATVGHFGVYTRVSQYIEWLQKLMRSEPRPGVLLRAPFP
The experiment in a line: cryo-EM structure.

Consider two molecules from article PMC12397995 (Blood, 2025).

B1: Fab fragment of the non-inhibitory anti-TF antibody 10H10 (Fab, V domains shown)
VH: QVHLQQSGAELMKPGASVKISCKASGYTFITYWIEWVKQRPGHGLEWIGDILPGSGSTNYNENFKGKATFTADSSSNTAYMQLSSLTSEDSAVYYCARSGYYGNSGFAYWGQGTLVTVSA
VL: DIVMTQSPSSLTVTAGEKVTMSCKSSQSLLSSGNQKNYLTWYQQIPGQPPKLLIYWASTRESGVPDRFTGSGSGTDFTLTINSVQAEDLAVYYCQNDYTYPLTFGAGTKLELK
With B1, in experiment [1], the binding result is given as “binds”.

B2: Recombinant, membrane-anchored tissue factor (TF residues 3–244) fused to E. coli maltose-binding protein (receptor, UniProt P13726 35-276, looked up)
chain: TTNTVAAYNLTWKSTNFKTILEWEPKPVNQVYTVQISTKSGDWKSKCFYTTDTECDLTDEIVKDVKQTYLARVFSYPAGNVESTGSAGEPLYENSPEFTPYLETNLGQPTIQSFEQVGTKVNVTVEDERTLVRRNNTFLSLRDVFGKDLIYTLYYWKSSSSGKKTAKTNTNEFLIDVDKGENYCFSVQAVIPSRTVNRKSTDSPVECMGQEKGEFREIFYIIGAVVFVVIILVIILAISLHK
As to B2, the binding result with Factor VIIa is reported as “binds”.
